In the RNAGym collection of RNA variant scans (doi:10.1093/molbev/msab373) one finds reverse-splicing fitness data, which are given here for 84 variants.

The labels stand for the following.
B1: Azoarcus group I ribozyme (parent)
chain: GUGCCUUGCGCCGGGAAACCACGCAAGGGAUGGUGUCAAAUUCGGCGAAACCUAAGCGCCCGCCCGGGCGUAUGGCAACGCCGAGCCAAGCUUCGGCGCCUGCGCCGAUGAAGGUGUAGAGACUAGACGGCACCCACCUAAGGCAAACGCUAUGGUGAAGGCAUAGUCCAGGGAGUGGCGAAAGUCACACAAACCGG

In the data set the parent is B1. The experiment in a line: reverse-splicing fitness (ratio to wild type); higher = more active; in vitro selection; Mg2+ level not given. The method in brief:
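An in vitro group I ribozyme library with randomized positions was T7-transcribed and gel-purified. In triplicate, 10 pmol RNA in EPPS pH 7.5 was reacted with 50 pmoles of a 30-nt RNA substrate for 1 h at 37 °C across several added MgCl2 levels (1–48 mM), then stopped with EDTA. Products were reverse transcribed from a substrate-complementary primer, PCR-amplified and sequenced (HiSeq 4000). Fitness is a variant's read proportion after selection over that before, normalised to wild type.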
On to C82A A120C A145U C150U C169A U176A, for which the reverse-splicing fitness was 0.0178. To C82A A120C A145U C150U C169A U176C belongs 0.0134; to C82A A120C A145U C150U C169A U176G, 0.00539. As to C82A A120C A145C C150U C169A U176C, the reverse-splicing fitness came to 0.00786. To C82A A120C A145C C150U C169A U176G belongs 0.00541; to C82A A120C A145C C150U C169A U176A, 0.0161. Consider C82A A120C A145C C150U U176A, for which the reverse-splicing fitness was determined as 0.0172. To C82A A120C A145C C150U U176C belongs 0.0227. In the case of C82A A120C A145C C150U U176G, the reverse-splicing fitness stood at 0.00635. To C82A A120G A145C C150A C169G belongs 0.00852; to C82A A120G A145C C150A C169A, 0.00694. With C82A A120C C150A C169A U176G, the reverse-splicing fitness turned out to be 0.00801.

Regarding C82A A120C C150A C169A U176C, the reverse-splicing fitness turned out to be 0.0227.

Consider C82A A120C C150A C169A U176A, for which the reverse-splicing fitness came out at 0.0213.

As to C82A A120C A145G C150G U176G, the reverse-splicing fitness stood at 0.00716. To C82A A120C A145G C150G U176C belongs 0.0148; to C82A A120C A145G C150G U176A, 0.00881. The result for C82A A120G A145C C150A C169G U176A reads 0.0238.

Consider C82A A120C C150U C169G U176G, for which the reverse-splicing fitness came out at 0.00493. To C82A A120C C150U C169G U176C belongs 0.0201; to C82A A120C C150U C169G U176A, 0.0152. The result for C82A A120C A145C C150U C169G U176A reads 0.0287; that for C82A A120C A145C C150U C169G U176C, 0.0186. To C82A A120C A145C C150U C169G U176G belongs 0.00542; to C82A A111U U176G, 0.026; to C82A A111U U176A, 0.0911. For C82A A111U U176C, the reverse-splicing fitness was 0.158. To C82A A111U C150U U176G belongs 0.0161. Turning to C82A A111U C150U U176A, the reverse-splicing fitness worked out at 0.0473. Regarding C82A A111U C150U U176C, the reverse-splicing fitness worked out at 0.0751. The result for C82A A120G A145C reads 0.0202. To C82A A120C A145C C169G U176G belongs 0.00536; to C82A A120C A145C C169G U176C, 0.0239. To C82A A120C A145C C169G U176A belongs 0.031; to C82A A111U C150G C169A, 0.00953. As to C82A A111U C150G C169G, the reverse-splicing fitness stood at 0.00756.

As for C82A A111U C150G C169U, the reverse-splicing fitness was found to be 0.0101.

For the variant C82A A120C, the reverse-splicing fitness was 0.144. For the variant C82A A120G, the reverse-splicing fitness came to 0.0258. On to C82A A120C A145G C150A C169A U176A, for which the reverse-splicing fitness was 0.0224. On to C82A A120C A145G C150A C169A U176G, for which the reverse-splicing fitness was 0.00876. Take C82A A120C A145G C150A C169A U176C: the reverse-splicing fitness was 0.0248. To C82A A120C A145U C150U C169U U176A belongs 0.0145; to C82A A120C A145U C150U C169U U176C, 0.0137; to C82A A120C A145U C150U C169U U176G, 0.00474. The result for C82A A111U C150A C169A U176A reads 0.0188. To C82A A111U C150A C169A U176G belongs 0.00811; to C82A A111U C150A C169A U176C, 0.0197. Consider C82A A120C C169A U176G, for which the reverse-splicing fitness came to 0.00458. To C82A A120C C169A U176A belongs 0.0198. The result for C82A A120C C169A U176C reads 0.0229; that for C82A A120C C150U C169U U176A, 0.0167.

In the case of C82A A120C C150U C169U U176C, the reverse-splicing fitness worked out at 0.0147. The result for C82A A120C C150U C169U U176G reads 0.00589; that for C82A A120C C150A C169U, 0.0147. Take C82A A120C C150A C169G: the reverse-splicing fitness amounted to 0.0106. The result for C82A A120C C150A C169A reads 0.0115; that for C82A A111U C150U C169A U176A, 0.0158; that for C82A A111U C150U C169A U176G, 0.00786.

In the case of C82A A111U C150U C169A U176C, the reverse-splicing fitness was 0.015.

As for C82A A120C A145C C150A C169U U176C, the reverse-splicing fitness is 0.0111. To C82A A120C A145C C150A C169U U176G belongs 0.00481. On to C82A A120C A145C C150A C169U U176A, for which the reverse-splicing fitness came to 0.0144. Consider C82A A111U C169G U176C, for which the reverse-splicing fitness came to 0.0258. The result for C82A A111U C169G U176G reads 0.00658; that for C82A A111U C169G U176A, 0.0162. To C82A A120C C150U C169A U176G belongs 0.00673; to C82A A120C C150U C169A U176C, 0.0165; to C82A A120C C150U C169A U176A, 0.0201. To C82A A120C A145G C150A C169G U176G belongs 0.00638; to C82A A120C A145G C150A C169G U176C, 0.0333; to C82A A120C A145G C150A C169G U176A, 0.0191.

Take C82A A120C A145C C150G C169A: the reverse-splicing fitness turned out to be 0.00891. To C82A A120C A145C C150G C169U belongs 0.00982; to C82A A120C A145C C150G C169G, 0.00784. The result for C82A A120C C150G C169G U176C reads 0.00601; that for C82A A120C C150G C169G U176G, 0.00605.

In the case of C82A A120C C150G C169G U176A, the reverse-splicing fitness came out at 0.00779. The result for C82A A111U C150U C169A reads 0.0102; that for C82A A111U C150U C169U, 0.0124. As to C82A A111U C150U C169G, the reverse-splicing fitness was 0.0102. To C82A A120C U176G belongs 0.00961; to C82A A120C U176A, 0.04; to C82A A120C U176C, 0.056.
